# Laboratory results taken from patent EP1847600A1, “Specific protease for inactivation of human tumour necrosis factor-alpha” (Direvo Biotech AG, priority 2006, dated 2007).
# B1: pegylated variant E: Variant E modified by chemical attachment of 20 kDa poly(ethyleneglycol) (conjugate)
# chain: IVGGYDCEENSVPYHVSLNSGSNSTTICGGALINEQWVVTAGHCYAFFPADKSRIQVRLGVHSTGALEGNEQIINAAKIIRHPQYDWKTLNNDIMLIKLSSPAVINAHVSTISLPTAPPATGTKCLISGWGNSKDPYKPSSRADYPGEVQCLDAPVLSQTKCEASYPGKITSNMFCAGFLEGGKDSCQGDSGGPVVHNGQLQGVVSWGEGCAQKNKPGVYTNVYNYVEWIQDTIAANS
# B2: pegylated variant G: variant G pegylated with 20 kD methoxy-poly(ethyleneglycol) derivative on lysine residues (conjugate)
# chain: IVGGYDCEENSVPYHVSLNSDSNSTTICGGALINEQWVVTAGHCYSFLPLDKSRIQVRLGVHSTGALEGNEQIINAAKIIRHPQYDWKTLNNDIMLIKLSSPAVINAHVSTISLPTAPPATGTKCLISGWGNSKDPYKPSSGPSTADYPGEVQCLDAPVLSQTKCEASYPGKITSNMFCAGFLEGGKDSCQGDSGGPVVHNGQLQGVVSWGEGCAQKNKPGVYTNVYNYVEWIQDTIAANS
# How the values were obtained:
# [1] = tested on: synthetic peptide; assay: Activity assay of pegylated versus non-pegylated protease against a synthetic peptide (Fig. 4A); format: biochemical; details: 20 kDa PEG; synthetic peptide / recombinant hTNFα
# Experimental: (§1) • Figure 1: Mass spectrometric verification of the proteolytic cleavage site of TNF-alpha. TNF-alpha was digested at a concentration of 1 mg/ml with protease variant E for 1 h at 37 °C in PBS buffer. The short fragment of the cleavage reaction was isolated on a C18-reversed phase HPLC-column and the collected fraction electrosprayed into the orifice of the ion-trap mass spectrometer. • Figure 2: Deconvoluted mass spectrometric analysis. The small cleavage product has been isolated and the determined mass represents the first 32 amino acids of SEQ ID NO: 11, confirming the targeted cleavage site. • Figure 3: Inactivation of recombinant human TNF-alpha activity by a panel of variants in a cell-based caspase assay. […] Detection of hTNFα-induced caspase activation was measured by a luminescence based read-out. […] (A) depicts maximal detected inactivation of hTNFα; (B) depicts dose dependency of the effects of the hTNFα specific protease. • Figure 4: Effect of pegylation on activity. […] The activity of the resulting pegylated protease was assessed against a recombinant hTNFα (A) or by a caspase assay that measures levels of remaining TNF-alpha activity following digestion of the cytokine by the protease (B). […] Cleavage is assessed by following the changes in the fluorescent signal. […] Efficacy was determined by using a standard clinical scoring system for ankle joint inflammation. […]
# [2] = biological target: hTNFα (Homo sapiens, UniProt P01375); assay: TNF-alpha dependent cell-based caspase assay (Caspase-Glo 3/7) on WEHI 13VAR cells; parameters: species or system mouse; details: 20 kDa PEG, protease 50 and 100 µg/ml, hTNFα 1 ng/ml, 4 h, 37 °C
# Experimental: as §1
# [3] = tested on: human TNF-alpha transgenic mouse model of arthritis; assay: Efficacy in human TNF-alpha transgenic mouse model of arthritis (Tg197); format: in vivo; details: Tg197 mice, six weeks old, established disease; 50 mg/kg intraperitoneally three times per week for five weeks
# Experimental: as §1
# [4] = biological target: T1, transmembrane TNF-alpha (Homo sapiens, UniProt P01375, DEL77-88); assay: Membrane-bound TNF-alpha assay: cell line expressing non-cleavable TNF plus reporter cells, apoptosis read-out; format: cell-based; details: incubation at different concentrations for 4 h, then reporter cell line added
# T1 construct: The transmembrane TNF induces apoptosis in these TNF-susceptible cells; expressed in transfected cells
# T1 sequence (P01375 with tags, fused parts or gaps DEL77-88): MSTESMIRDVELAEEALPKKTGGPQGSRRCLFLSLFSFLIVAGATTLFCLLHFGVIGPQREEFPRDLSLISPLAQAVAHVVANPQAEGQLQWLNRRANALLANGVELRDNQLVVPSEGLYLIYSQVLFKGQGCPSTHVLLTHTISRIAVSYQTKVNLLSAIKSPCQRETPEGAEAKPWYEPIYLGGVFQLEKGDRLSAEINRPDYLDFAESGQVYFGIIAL
# Chain of hTNFα (P01375 77-233 limits assumed): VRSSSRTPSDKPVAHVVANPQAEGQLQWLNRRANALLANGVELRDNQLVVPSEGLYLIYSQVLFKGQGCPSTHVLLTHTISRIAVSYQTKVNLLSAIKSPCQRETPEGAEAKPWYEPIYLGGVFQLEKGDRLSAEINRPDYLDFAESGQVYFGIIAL
Molecule,activity of pegylated protease compared with non-pegylated variant (Fig. 4A) [1],"remaining TNF-alpha activity after digestion, pegylated compared with non-pegylated variant (Fig. 4B) [2]",clinical score for ankle joint inflammation (arthritis score 0 to 3) [3],inactivation of transmembrane TNF-alpha (inhibition of apoptosis of reporter cells) [4]
B1,slight reduction in specific activity,slight reduction in specific activity,Efficacy of pegylated TNF-alpha specific protease variant E is demonstrated,–
B2,–,–,–,do not inhibit apoptosis
